{"source": "patent US20160075790A1", "about": "(Bristol-Myers Squibb, published 2016)", "molecules": {"B1": {"name": "BMS2h-572-633 (other)", "VH": "EVQLLESGGGLVQPGGSLRLSCAASGFTFNWELMGWARQAPGKGLEWVSGIEGPGDVTYYADSVKGRFTISRDNSKNTLYLQMNSLRAEDTAVYYCVKVGKDAKSDYRGQGTLVTVSS", "notes": "VH dAb, monovalent"}, "B2": {"name": "2h572-634-CT Long Fc (Fc fusion)", "chain": "B1 VH with A103S, K104R", "notes": "not shown: linker and CT Long Fc (CT-L2)"}, "B3": {"name": "2h572-633-CT Long Fc (Fc fusion)", "chain": "B1 VH", "notes": "as for B2"}, "B4": {"name": "2h572-619-Ctlong Fc (Fc fusion)", "chain": "B1 VH with E32Q, A37V, A103S, K104R", "notes": "as for B2"}}, "key": {"human FcRn (human)": {"biological_target": "human FcRn (human) (UniProt P55899)", "sequence (P55899 24-297 limits assumed, chain 1 of 2)": "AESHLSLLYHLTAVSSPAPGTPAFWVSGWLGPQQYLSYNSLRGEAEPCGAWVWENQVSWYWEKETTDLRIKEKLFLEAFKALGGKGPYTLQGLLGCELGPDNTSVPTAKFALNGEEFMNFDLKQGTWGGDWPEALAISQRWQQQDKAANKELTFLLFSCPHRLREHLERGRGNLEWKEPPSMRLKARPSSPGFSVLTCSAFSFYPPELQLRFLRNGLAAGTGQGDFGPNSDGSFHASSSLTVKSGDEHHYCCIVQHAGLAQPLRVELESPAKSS", "sequence (P61769 21-119 limits assumed, chain 2 of 2, further chain)": "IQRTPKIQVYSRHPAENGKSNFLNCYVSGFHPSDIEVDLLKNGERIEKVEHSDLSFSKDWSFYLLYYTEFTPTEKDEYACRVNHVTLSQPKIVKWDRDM", "assay": "SPR; captured on biot-IZ-hCD40L surface, soluble FcR as analyte; pH 6"}, "[1]": {"biological_target": "human CD16a (FcγRIIIa) (human) (UniProt P08637)", "sequence (P08637 17-208 limits assumed)": "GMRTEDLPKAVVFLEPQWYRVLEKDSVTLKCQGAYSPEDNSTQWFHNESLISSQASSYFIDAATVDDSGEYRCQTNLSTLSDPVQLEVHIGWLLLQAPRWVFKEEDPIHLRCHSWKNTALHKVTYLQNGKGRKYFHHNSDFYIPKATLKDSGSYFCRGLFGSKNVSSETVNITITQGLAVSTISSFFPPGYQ", "assay": "SPR; captured on biot-IZ-hCD40L surface, soluble FcR as analyte; pH 7.1"}, "[2]": {"biological_target": "human CD64 (FcγRI) (human) (UniProt P12314)", "sequence (P12314 16-288 limits assumed)": "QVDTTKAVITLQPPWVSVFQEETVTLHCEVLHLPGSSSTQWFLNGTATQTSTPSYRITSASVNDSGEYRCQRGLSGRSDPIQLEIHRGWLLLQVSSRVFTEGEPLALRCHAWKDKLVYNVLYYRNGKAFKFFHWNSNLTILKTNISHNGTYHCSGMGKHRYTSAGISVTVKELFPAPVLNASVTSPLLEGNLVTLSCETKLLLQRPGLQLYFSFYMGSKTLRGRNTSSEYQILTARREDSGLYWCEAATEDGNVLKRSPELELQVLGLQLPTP", "assay": "SPR; captured on biot-IZ-hCD40L surface, soluble FcR as analyte; pH 7.1"}, "[3]": {"biological_target": "cynomolgus monkey CD40L on cells (cynomolgus monkey) (UniProt G7Q1T4)", "assay": "in vivo receptor occupancy on monkey PBMC, 20 mg/kg IV, 48 h post-dose"}, "[4]": {"biological_target": "cynomolgus monkey CD40L on cells (cynomolgus monkey) (UniProt G7Q1T4)", "assay": "in vivo receptor occupancy on monkey PBMC, 20 mg/kg IV, through 1032 h"}, "[5]": {"biological_target": "human CD32a (FcγRIIa), soluble (human) (UniProt P12318)", "sequence (P12318 36-218 limits assumed)": "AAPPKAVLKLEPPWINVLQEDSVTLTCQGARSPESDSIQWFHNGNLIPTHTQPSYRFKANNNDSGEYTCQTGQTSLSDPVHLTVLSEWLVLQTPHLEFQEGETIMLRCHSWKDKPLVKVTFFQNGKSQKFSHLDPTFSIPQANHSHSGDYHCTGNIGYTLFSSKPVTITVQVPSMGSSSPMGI", "assay": "SPR; biphasic binding, steady state fit to the dominant binding event; pH 7.1"}, "mouse CD40L (mouse)": {"biological_target": "mouse CD40L (mouse) (UniProt P27548)", "sequence (P27548 112-260 limits assumed)": "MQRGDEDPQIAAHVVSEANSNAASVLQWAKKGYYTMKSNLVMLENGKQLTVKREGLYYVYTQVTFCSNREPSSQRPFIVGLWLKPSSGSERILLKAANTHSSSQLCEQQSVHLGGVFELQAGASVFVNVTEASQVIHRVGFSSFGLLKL", "assay": "cell-based or functional assay"}, "[6]": {"biological_target": "T1, human CD40L, membrane-bound on cells (human, UniProt P29965 1-261)", "T1 sequence": "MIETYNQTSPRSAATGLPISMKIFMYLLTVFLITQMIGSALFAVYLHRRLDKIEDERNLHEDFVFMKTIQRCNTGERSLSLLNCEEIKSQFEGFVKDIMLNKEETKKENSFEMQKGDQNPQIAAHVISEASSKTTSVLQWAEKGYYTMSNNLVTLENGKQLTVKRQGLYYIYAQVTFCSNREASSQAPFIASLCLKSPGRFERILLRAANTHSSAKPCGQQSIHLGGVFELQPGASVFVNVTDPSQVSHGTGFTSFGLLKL", "assay": "cell-based or functional assay"}, "[7]": {"biological_target": "human isoleucine zipper-CD40L (IZ-hCD40L) (human) (UniProt P29965)", "assay": "cell-based or functional assay"}, "[8]": {"biological_target": "T2, human isoleucine zipper-CD40L (IZ-hCD40L) (human, UniProt P29965 113-261)", "T2 sequence": "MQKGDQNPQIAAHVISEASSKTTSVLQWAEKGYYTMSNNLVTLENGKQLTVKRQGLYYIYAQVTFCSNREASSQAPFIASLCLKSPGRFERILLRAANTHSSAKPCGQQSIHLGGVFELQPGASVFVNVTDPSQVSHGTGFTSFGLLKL", "assay": "cell-based or functional assay"}, "[9]": {"biological_target": "T1, human CD40L, membrane-bound on cells", "assay": "cell-based or functional assay", "remark": "listed apart in the source"}, "[10]": {"biological_target": "T3, biotinylated IZ-hCD40L (biot-IZ-hCD40L) (human, UniProt P29965 113-261, biotinylated)", "T3 construct": "biotinylated version of IZ-hCD40L captured on streptavidin chip; also called biotinylated CD40L; not shown: N-terminal isoleucine zipper motif", "T3 sequence": "T2 sequence", "assay": "SPR (Biacore), 25 C, 1:1 Langmuir; monovalent dAb", "description": "The SPR experiments utilized a hCD40L construct containing an N-terminal isoleucine zipper motif (IZ-hCD40L) which facilitates the specific assembly of the CD40L molecule into the native trimeric form."}, "[11]": {"biological_target": "T2, human isoleucine zipper-CD40L …", "assay": "cell-based or functional assay", "remark": "listed apart in the source"}, "[12]": {"biological_target": "T1, human CD40L, membrane-bound on cells", "assay": "cell-based or functional assay", "remark": "listed apart in the source"}, "[13]": {"biological_target": "T4, human CD40L monomer triple mutant (T211E, S222Y, H224K, [108-261]) (human, UniProt P29965 108-261)", "T4 construct": "also called monomeric human CD40L", "T4 chain": "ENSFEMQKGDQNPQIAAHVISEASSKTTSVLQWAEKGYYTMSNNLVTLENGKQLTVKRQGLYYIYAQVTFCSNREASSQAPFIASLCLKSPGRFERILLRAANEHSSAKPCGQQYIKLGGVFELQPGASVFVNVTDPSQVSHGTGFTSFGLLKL", "assay": "SPR; dAb-CT-long captured on anti-human IgG Fc surface, CD40L monomer as analyte"}}, "note": "Residue numbers refer to the chain shown, from its start. Like-named read-outs stand apart in the source and are kept apart here."}
{"molecule": "5c8-IgG1 (antibody)", "values": [{"measurement": "Kd", "setting": "human FcRn (human)", "result": 590, "unit": "nM"}, {"measurement": "Kd", "setting": "[1]", "result": 240, "unit": "nM"}, {"measurement": "Kd", "setting": "[2]", "result": "< 0.05", "unit": "nM"}, {"measurement": "mean peak receptor occupancy", "setting": "[3]", "result": 100, "unit": "%"}, {"measurement": "receptor occupancy", "setting": "[4]", "result": "> 97", "unit": "%"}, {"measurement": "Kd", "setting": "[5]", "result": 100, "unit": "nM"}]}
{"molecule": "MR-1 (antibody)", "values": [{"measurement": "CHO-CD40L B cell Assay EC50", "setting": "mouse CD40L (mouse)", "result": 0.6, "unit": "nM"}, {"measurement": "CHO-CD40L DC Assay IL-6 EC50", "setting": "mouse CD40L (mouse)", "result": 0.6, "unit": "nM"}, {"measurement": "Trimer B cell Assay EC50", "setting": "mouse CD40L (mouse)", "result": 1.7, "unit": "nM"}]}
{"molecule": "5c8 mAb (antibody)", "values": [{"measurement": "CHO-CD40L B cell Assay EC50", "setting": "[6]", "result": 2, "unit": "nM"}, {"measurement": "CHO-CD40L DC Assay IL-12 EC50", "setting": "[6]", "result": 2, "unit": "nM"}, {"measurement": "T-B MLR EC50", "setting": "[6]", "result": 0.54, "unit": "nM"}, {"measurement": "T-B MLR IL-6 EC50", "setting": "[6]", "result": 0.23, "unit": "nM"}, {"measurement": "Trimer B cell Assay EC50", "setting": "[7]", "result": 8, "unit": "nM"}]}
{"molecule": "B1", "values": [{"measurement": "hIZCD40L-driven Human B Cell Proliferation EC50", "setting": "[8]", "result": 20, "unit": "nM"}, {"measurement": "CHO-hCD40L-driven DC Activation IL-12 EC50", "setting": "[9]", "result": 53, "unit": "nM"}, {"measurement": "Kd", "setting": "[10]", "result": 7.8, "unit": "nM"}, {"measurement": "koff", "setting": "[10]", "result": 0.0081, "unit": "s⁻¹"}, {"measurement": "kon", "setting": "[10]", "result": "1e+06", "unit": "M⁻¹ s⁻¹"}]}
{"molecule": "B2", "values": [{"measurement": "hIZCD40L-driven Human B Cell Proliferation EC50", "setting": "[11]", "result": 2, "unit": "nM"}, {"measurement": "CHO-hCD40L-driven DC Activation IL-12 EC50", "setting": "[12]", "result": 1.5, "unit": "nM"}, {"measurement": "CHO-hCD40L-driven Human B Cell Proliferation EC50", "setting": "[12]", "result": 1, "unit": "nM"}, {"measurement": "T-B cell MLR EC50", "setting": "[12]", "result": 0.162, "unit": "nM"}, {"measurement": "T-B cell MLR IL-6 EC50", "setting": "[12]", "result": 0.13, "unit": "nM"}, {"measurement": "binding result", "setting": "[13]", "result": "no binding"}]}
{"molecule": "B3", "values": [{"measurement": "hIZCD40L-driven Human B Cell Proliferation EC50", "setting": "[11]", "result": 3, "unit": "nM"}, {"measurement": "CHO-hCD40L-driven DC Activation IL-6 EC50", "setting": "[12]", "result": 1.3, "unit": "nM"}, {"measurement": "CHO-hCD40L-driven DC Activation IL-12 EC50", "setting": "[12]", "result": 1.9, "unit": "nM"}, {"measurement": "CHO-hCD40L-driven DC Activation IL-23 EC50", "setting": "[12]", "result": 1.2, "unit": "nM"}, {"measurement": "CHO-hCD40L-driven DC Activation TNF EC50", "setting": "[12]", "result": 1.7, "unit": "nM"}, {"measurement": "CHO-hCD40L-driven Human B Cell Proliferation EC50", "setting": "[12]", "result": 1, "unit": "nM"}, {"measurement": "T-B cell MLR EC50", "setting": "[12]", "result": 0.174, "unit": "nM"}, {"measurement": "T-B cell MLR IL-6 EC50", "setting": "[12]", "result": 0.13, "unit": "nM"}, {"measurement": "binding result", "setting": "[13]", "result": "no binding"}]}
{"molecule": "B4", "values": [{"measurement": "hIZCD40L-driven Human B Cell Proliferation EC50", "setting": "[11]", "result": 1.6, "unit": "nM"}, {"measurement": "CHO-hCD40L-driven DC Activation IL-6 EC50", "setting": "[12]", "result": 1.5, "unit": "nM"}, {"measurement": "CHO-hCD40L-driven DC Activation IL-12 EC50", "setting": "[12]", "result": 1.4, "unit": "nM"}, {"measurement": "CHO-hCD40L-driven DC Activation IL-23 EC50", "setting": "[12]", "result": 1.5, "unit": "nM"}, {"measurement": "CHO-hCD40L-driven DC Activation TNF EC50", "setting": "[12]", "result": 2, "unit": "nM"}, {"measurement": "CHO-hCD40L-driven Human B Cell Proliferation EC50", "setting": "[12]", "result": 2, "unit": "nM"}, {"measurement": "T-B cell MLR EC50", "setting": "[12]", "result": 0.72, "unit": "nM"}, {"measurement": "T-B cell MLR IL-6 EC50", "setting": "[12]", "result": 0.43, "unit": "nM"}, {"measurement": "binding result", "setting": "[13]", "result": "no binding"}]}
